Test results as given in patent publication US20250218531A1 (ABSCI, published 2025).
Numbering of substitutions follows the chain as printed.

B1: Trastuzumab HCDR3 variant ARWGNYYYYMDY (Fab, V domains shown)
VH: EVQLVESGGGLVQPGGSLRLSCAASGFNIKDTYIHWVRQAPGKGLEWVARIYPTNGYTRYADSVKGRFTISADTSKNTAYLQMNSLRAEDTAVYYCARWGNYYYYMDYWGQGTLVTVSS
VL: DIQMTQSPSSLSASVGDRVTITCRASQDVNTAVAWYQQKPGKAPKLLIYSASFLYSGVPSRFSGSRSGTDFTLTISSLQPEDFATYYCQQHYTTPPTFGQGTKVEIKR
B2: Trastuzumab HCDR3 variant ARWPGGYYHMDY (Fab, V domains shown)
VH: B1 VH with G100P, N101G, Y102G, Y105H
VL: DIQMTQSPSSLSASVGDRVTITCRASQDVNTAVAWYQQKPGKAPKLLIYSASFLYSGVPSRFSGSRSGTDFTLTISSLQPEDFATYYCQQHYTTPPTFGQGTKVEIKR
B3: Trastuzumab HCDR3 variant ARYGGGYWYFDY (Fab, V domains shown)
VH: B1 VH with W99Y, N101G, Y102G, Y104W, M106F
VL: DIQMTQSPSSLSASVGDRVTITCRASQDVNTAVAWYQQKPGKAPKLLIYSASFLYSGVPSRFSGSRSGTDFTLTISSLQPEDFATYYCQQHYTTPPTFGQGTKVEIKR
B4: Trastuzumab HCDR3 variant ARYGGGFYAMDY (Fab, V domains shown)
VH: B1 VH with W99Y, N101G, Y102G, Y103F, Y105A
VL: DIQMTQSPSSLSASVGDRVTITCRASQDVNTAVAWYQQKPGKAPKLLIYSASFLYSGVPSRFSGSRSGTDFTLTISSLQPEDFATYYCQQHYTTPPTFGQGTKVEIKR
B5: Trastuzumab HCDR3 variant ARYGYGYFYMDY (Fab, V domains shown)
VH: B1 VH with W99Y, N101Y, Y102G, Y104F
VL: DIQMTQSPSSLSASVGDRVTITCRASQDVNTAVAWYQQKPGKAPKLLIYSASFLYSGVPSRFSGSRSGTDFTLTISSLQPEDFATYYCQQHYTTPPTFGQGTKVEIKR
B6: Trastuzumab HCDR3 variant ARWGYDYYYFAY (Fab, V domains shown)
VH: B1 VH with N101Y, Y102D, M106F, D107A
VL: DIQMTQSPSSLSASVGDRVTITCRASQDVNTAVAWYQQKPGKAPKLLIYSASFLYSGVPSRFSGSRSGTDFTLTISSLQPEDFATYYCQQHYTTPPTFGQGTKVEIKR
B7: Trastuzumab HCDR3 variant ARYGVVRYDFAY (Fab, V domains shown)
VH: B1 VH with W99Y, N101V, Y102V, Y103R, Y105D, M106F, D107A
VL: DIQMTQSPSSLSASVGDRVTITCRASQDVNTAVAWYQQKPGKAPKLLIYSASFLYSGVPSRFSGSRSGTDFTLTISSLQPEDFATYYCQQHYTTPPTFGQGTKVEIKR
B8: Trastuzumab HCDR3 variant ARYGWGYYYFDY (Fab, V domains shown)
VH: B1 VH with W99Y, N101W, Y102G, M106F
VL: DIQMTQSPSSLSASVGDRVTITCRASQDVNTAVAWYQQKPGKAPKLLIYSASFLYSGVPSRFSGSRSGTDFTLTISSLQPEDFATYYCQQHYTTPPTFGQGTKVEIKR
B9: Trastuzumab HCDR3 variant ARYGGYYYYMDY (Fab, V domains shown)
VH: B1 VH with W99Y, N101G
VL: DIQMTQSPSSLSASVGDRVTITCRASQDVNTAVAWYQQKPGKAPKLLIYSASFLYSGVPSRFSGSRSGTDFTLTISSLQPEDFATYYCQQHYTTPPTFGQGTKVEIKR
B10: Trastuzumab HCDR3 variant ARYGSYNYYFGD (Fab, V domains shown)
VH: B1 VH with W99Y, N101S, Y103N, M106F, D107G, Y108D
VL: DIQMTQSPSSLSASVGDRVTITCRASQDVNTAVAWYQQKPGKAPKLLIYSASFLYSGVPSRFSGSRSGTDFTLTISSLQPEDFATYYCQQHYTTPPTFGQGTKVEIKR
B11: Trastuzumab HCDR3 variant ARWYGGYYMYDY (Fab, V domains shown)
VH: B1 VH with G100Y, N101G, Y102G, Y105M, M106Y
VL: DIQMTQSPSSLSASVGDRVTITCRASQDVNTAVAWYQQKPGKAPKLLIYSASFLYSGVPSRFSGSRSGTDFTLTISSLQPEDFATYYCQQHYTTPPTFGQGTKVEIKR
B12: Trastuzumab HCDR3 variant ARYGGFYYYFDY (Fab, V domains shown)
VH: B1 VH with W99Y, N101G, Y102F, M106F
VL: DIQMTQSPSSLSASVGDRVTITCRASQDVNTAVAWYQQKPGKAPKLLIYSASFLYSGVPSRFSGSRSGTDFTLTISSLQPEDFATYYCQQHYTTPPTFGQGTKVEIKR
B13: Trastuzumab HCDR3 variant ARYGTGNYAMDY (Fab, V domains shown)
VH: B1 VH with W99Y, N101T, Y102G, Y103N, Y105A
VL: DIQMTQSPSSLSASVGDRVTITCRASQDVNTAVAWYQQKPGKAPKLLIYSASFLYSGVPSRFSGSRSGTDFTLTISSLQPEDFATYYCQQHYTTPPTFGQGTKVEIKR
B14: Trastuzumab HCDR3 variant ARWGYGYYYFDY (Fab, V domains shown)
VH: B1 VH with N101Y, Y102G, M106F
VL: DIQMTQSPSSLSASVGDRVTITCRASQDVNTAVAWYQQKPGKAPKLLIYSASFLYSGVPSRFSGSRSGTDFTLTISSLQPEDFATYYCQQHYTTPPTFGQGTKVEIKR
B15: Trastuzumab HCDR3 variant ARYGYGYYVMDY (Fab, V domains shown)
VH: B1 VH with W99Y, N101Y, Y102G, Y105V
VL: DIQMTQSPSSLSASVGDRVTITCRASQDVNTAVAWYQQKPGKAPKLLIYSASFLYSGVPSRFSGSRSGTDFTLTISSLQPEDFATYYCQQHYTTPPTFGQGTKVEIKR
B16: Trastuzumab HCDR3 variant ARYGRGYYYFDY (Fab, V domains shown)
VH: B1 VH with W99Y, N101R, Y102G, M106F
VL: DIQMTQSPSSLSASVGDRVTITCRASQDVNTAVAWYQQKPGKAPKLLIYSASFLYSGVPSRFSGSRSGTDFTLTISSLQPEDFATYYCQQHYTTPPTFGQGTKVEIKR
B17: Trastuzumab HCDR3 variant ARYGTIYFHFDY (Fab, V domains shown)
VH: B1 VH with W99Y, N101T, Y102I, Y104F, Y105H, M106F
VL: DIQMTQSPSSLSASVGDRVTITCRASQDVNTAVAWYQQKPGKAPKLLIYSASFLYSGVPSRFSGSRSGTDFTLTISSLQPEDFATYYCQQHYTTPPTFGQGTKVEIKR
B18: Trastuzumab HCDR3 variant ARWGSGYYYMDY (Fab, V domains shown)
VH: B1 VH with N101S, Y102G
VL: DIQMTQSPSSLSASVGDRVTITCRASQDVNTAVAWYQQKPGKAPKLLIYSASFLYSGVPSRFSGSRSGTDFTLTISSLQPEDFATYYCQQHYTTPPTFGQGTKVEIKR
B19: Trastuzumab HCDR3 variant ARWLAYWYAMDY (Fab, V domains shown)
VH: B1 VH with G100L, N101A, Y103W, Y105A
VL: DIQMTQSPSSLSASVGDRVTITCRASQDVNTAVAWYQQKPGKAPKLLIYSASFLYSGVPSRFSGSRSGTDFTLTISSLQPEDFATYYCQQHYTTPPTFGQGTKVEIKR
B20: Trastuzumab HCDR3 variant ARWQGGYYYWDF (Fab, V domains shown)
VH: B1 VH with G100Q, N101G, Y102G, M106W, Y108F
VL: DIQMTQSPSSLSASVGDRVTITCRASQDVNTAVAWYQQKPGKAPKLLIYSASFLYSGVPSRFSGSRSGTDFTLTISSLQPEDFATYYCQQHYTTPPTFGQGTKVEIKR
B21: Trastuzumab HCDR3 variant ARWYGAYYHMDY (Fab, V domains shown)
VH: B1 VH with G100Y, N101G, Y102A, Y105H
VL: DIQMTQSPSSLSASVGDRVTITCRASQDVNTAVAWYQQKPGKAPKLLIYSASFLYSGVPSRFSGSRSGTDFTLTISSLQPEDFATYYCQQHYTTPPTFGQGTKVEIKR
B22: Trastuzumab HCDR3 variant ARYDIGYYDMDK (Fab, V domains shown)
VH: B1 VH with W99Y, G100D, N101I, Y102G, Y105D, Y108K
VL: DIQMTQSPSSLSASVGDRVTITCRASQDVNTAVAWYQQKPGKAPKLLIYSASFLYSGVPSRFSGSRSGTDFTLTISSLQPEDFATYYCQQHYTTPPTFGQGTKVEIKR
B23: Trastuzumab HCDR3 variant ARWYGGYYHHDY (Fab, V domains shown)
VH: B1 VH with G100Y, N101G, Y102G, Y105H, M106H
VL: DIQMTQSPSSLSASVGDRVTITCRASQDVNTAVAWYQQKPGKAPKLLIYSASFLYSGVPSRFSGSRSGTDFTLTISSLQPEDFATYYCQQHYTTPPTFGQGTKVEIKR
B24: Trastuzumab HCDR3 variant ARYFGGSYAYVY (Fab, V domains shown)
VH: B1 VH with W99Y, G100F, N101G, Y102G, Y103S, Y105A, M106Y, D107V
VL: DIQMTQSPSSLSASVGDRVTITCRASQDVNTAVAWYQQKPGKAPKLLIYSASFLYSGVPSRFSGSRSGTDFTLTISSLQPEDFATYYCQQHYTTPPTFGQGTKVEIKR
B25: Trastuzumab HCDR3 variant ARYGYGYYYMDY (Fab, V domains shown)
VH: B1 VH with W99Y, N101Y, Y102G
VL: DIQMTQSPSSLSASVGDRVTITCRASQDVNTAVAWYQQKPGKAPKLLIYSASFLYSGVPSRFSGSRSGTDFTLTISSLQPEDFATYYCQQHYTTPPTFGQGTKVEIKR
B26: Trastuzumab HCDR3 variant ARYGYDGYYFAY (Fab, V domains shown)
VH: B1 VH with W99Y, N101Y, Y102D, Y103G, M106F, D107A
VL: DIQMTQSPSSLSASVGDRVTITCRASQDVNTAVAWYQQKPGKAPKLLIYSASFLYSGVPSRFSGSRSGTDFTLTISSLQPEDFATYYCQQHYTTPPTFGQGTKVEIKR
B27: Trastuzumab HCDR3 variant ARWGYYYYYMDY (Fab, V domains shown)
VH: B1 VH with N101Y
VL: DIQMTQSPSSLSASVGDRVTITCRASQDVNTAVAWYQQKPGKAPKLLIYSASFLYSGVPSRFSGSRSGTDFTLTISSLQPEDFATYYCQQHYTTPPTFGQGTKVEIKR
B28: Trastuzumab HCDR3 variant ARYGAYFYAMDA (Fab, V domains shown)
VH: B1 VH with W99Y, N101A, Y103F, Y105A, Y108A
VL: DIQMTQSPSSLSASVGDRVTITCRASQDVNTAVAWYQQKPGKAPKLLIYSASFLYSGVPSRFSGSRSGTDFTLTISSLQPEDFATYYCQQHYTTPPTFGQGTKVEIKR
B29: Trastuzumab HCDR3 variant ARYGLGYYYFDY (Fab, V domains shown)
VH: B1 VH with W99Y, N101L, Y102G, M106F
VL: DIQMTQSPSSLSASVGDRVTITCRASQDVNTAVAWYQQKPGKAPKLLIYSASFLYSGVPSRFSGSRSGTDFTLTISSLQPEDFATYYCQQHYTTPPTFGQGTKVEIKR
B30: Trastuzumab HCDR3 variant ARYGLGYYYMDY (Fab, V domains shown)
VH: B1 VH with W99Y, N101L, Y102G
VL: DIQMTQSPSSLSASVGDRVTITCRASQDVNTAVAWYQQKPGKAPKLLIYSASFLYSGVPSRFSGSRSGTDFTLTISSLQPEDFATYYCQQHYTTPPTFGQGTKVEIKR
B31: Trastuzumab HCDR3 variant ARWYYDYYYMDY (Fab, V domains shown)
VH: B1 VH with G100Y, N101Y, Y102D
VL: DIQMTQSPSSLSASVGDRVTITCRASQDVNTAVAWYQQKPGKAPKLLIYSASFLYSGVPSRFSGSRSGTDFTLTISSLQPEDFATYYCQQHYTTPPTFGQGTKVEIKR
B32: Trastuzumab HCDR3 variant ARYGSYFYYMDY (Fab, V domains shown)
VH: B1 VH with W99Y, N101S, Y103F
VL: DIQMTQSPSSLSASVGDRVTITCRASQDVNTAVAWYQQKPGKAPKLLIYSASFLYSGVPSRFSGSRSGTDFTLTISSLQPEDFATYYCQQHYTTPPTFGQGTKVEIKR
B33: Trastuzumab HCDR3 variant ARWSSGYYYMDY (Fab, V domains shown)
VH: B1 VH with G100S, N101S, Y102G
VL: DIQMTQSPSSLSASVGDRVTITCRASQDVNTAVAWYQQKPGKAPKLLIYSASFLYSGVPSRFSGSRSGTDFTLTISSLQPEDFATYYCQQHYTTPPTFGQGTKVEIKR
B34: Trastuzumab HCDR3 variant ARYGGGYYYYDY (Fab, V domains shown)
VH: B1 VH with W99Y, N101G, Y102G, M106Y
VL: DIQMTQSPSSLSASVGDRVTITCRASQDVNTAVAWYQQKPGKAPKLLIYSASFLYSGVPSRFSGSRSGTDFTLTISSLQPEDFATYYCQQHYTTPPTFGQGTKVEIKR
B35: Trastuzumab HCDR3 variant ARWGYYYYAMDY (Fab, V domains shown)
VH: B1 VH with N101Y, Y105A
VL: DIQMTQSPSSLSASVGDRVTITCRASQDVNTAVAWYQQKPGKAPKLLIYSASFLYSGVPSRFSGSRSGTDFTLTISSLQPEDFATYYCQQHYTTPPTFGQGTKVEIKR
B36: Trastuzumab HCDR3 variant ARWYGYYYYFDV (Fab, V domains shown)
VH: B1 VH with G100Y, N101G, M106F, Y108V
VL: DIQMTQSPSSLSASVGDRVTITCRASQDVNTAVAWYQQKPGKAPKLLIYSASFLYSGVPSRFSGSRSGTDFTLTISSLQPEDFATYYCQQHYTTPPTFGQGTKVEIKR
B37: Trastuzumab HCDR3 variant ARYGLYYYYFDY (Fab, V domains shown)
VH: B1 VH with W99Y, N101L, M106F
VL: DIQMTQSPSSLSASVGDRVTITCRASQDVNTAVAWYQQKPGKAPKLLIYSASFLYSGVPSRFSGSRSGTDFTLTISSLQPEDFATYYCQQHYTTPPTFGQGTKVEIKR
B38: Trastuzumab HCDR3 variant ARWSYGYYNFDY (Fab, V domains shown)
VH: B1 VH with G100S, N101Y, Y102G, Y105N, M106F
VL: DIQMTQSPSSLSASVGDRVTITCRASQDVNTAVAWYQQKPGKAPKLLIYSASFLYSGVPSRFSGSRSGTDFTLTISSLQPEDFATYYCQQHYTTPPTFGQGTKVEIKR
B39: Trastuzumab HCDR3 variant ARYDYGYYIYVS (Fab, V domains shown)
VH: B1 VH with W99Y, G100D, N101Y, Y102G, Y105I, M106Y, D107V, Y108S
VL: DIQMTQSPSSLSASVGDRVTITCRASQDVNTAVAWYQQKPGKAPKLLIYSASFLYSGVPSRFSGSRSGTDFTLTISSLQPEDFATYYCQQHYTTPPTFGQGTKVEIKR

What follows are binders tested against T1, HER2 (human epidermal growth factor receptor 2) (human, UniProt P04626 23-629) (assay: SPR).
T1 construct: also called Antigen: HER2

| Binder | Kd [nM] | log(KD (M)) |
| --- | --- | --- |
| B1 | 1.69 | -8.77 |
| B2 | 8.49 | -8.07 |
| B3 | 23.4 | -7.63 |
| B4 | 22.4 | -7.65 |
| B5 | 21.9 | -7.66 |
| B6 | 26.5 | -7.58 |
| B7 | 20.5 | -7.69 |
| B8 | 14.7 | -7.83 |
| B9 | 16.3 | -7.79 |
| B10 | 13.6 | -7.87 |
| B11 | 19.1 | -7.72 |
| B12 | 6.17 | -8.21 |
| B13 | 26.3 | -7.58 |
| B14 | 25.2 | -7.6 |
| B15 | 8.65 | -8.06 |
| B16 | 26.8 | -7.57 |
| B17 | 23.9 | -7.62 |
| B18 | 4.46 | -8.35 |
| B19 | 3.55 | -8.45 |
| B20 | 13.8 | -7.86 |

| Binder | Kd [nM] | log(KD (M)) |
| --- | --- | --- |
| B21 | 5.59 | -8.25 |
| B22 | 27 | -7.57 |
| B23 | 8.57 | -8.07 |
| B24 | 11.2 | -7.95 |
| B25 | 12.2 | -7.91 |
| B26 | 22.2 | -7.65 |
| B27 | 2.28 | -8.64 |
| B28 | 18.6 | -7.73 |
| B29 | 15.7 | -7.8 |
| B30 | 10.5 | -7.98 |
| B31 | 13.9 | -7.86 |
| B32 | 6.53 | -8.19 |
| B33 | 12 | -7.92 |
| B34 | 9.11 | -8.04 |
| B35 | 22.6 | -7.65 |
| B36 | 11.2 | -7.95 |
| B37 | 15.5 | -7.81 |
| B38 | 1.98 | -8.7 |
| B39 | 9.49 | -8.02 |
